Patent US20170157251A1 (MacroGenics, published 2017)

How the values were obtained:
[1] = target: T1, human CD19 on cells (human, UniProt P15391 20-556); experiment: cell-based or functional assay
T1 sequence (looked up): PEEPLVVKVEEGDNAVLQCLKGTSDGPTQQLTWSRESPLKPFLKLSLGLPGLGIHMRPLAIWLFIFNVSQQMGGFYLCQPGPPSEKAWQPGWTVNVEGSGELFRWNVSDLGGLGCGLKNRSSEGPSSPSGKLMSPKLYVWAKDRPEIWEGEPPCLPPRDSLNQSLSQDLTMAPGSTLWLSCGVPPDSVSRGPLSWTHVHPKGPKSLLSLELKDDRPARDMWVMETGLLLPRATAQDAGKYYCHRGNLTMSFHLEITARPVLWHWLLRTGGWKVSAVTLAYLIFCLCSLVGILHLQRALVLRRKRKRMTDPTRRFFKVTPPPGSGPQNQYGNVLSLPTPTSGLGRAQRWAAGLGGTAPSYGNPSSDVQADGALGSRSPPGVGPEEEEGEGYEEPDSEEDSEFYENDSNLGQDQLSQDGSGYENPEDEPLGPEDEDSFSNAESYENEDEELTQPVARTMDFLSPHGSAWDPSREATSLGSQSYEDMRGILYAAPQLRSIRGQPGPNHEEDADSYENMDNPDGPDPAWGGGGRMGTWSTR

[2] = target: T1, human CD19 on cells; experiment: cell-based or functional assay; remark: listed apart in the source
[3] = target: T1, human CD19 on cells; experiment: cell-based or functional assay; remark: listed apart in the source
[4] = target: T1, human CD19 on cells; experiment: cell-based or functional assay; remark: listed apart in the source
[5] = target: T2, Human CD19-His (human, UniProt P15391 20-291, limits assumed); experiment: SPR (BIAcore), DART-A 0-100 nM, soluble antigen
T2 construct: Soluble antigen in SPR; also called soluble human CD19; not shown: His tag
T2 sequence (looked up): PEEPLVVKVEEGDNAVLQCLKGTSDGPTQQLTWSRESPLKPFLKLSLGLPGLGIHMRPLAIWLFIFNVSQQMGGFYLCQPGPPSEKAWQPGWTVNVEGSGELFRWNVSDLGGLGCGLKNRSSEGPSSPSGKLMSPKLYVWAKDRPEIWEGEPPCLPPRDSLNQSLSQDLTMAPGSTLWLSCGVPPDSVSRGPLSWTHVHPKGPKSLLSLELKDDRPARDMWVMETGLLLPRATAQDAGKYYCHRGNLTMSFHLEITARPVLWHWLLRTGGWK

[6] = target: T3, Cynomolgus CD19-His (cynomolgus monkey, UniProt A0A2K5W8L9 20-292); experiment: SPR (BIAcore), DART-A 0-100 nM, soluble antigen
T3 construct: Soluble antigen in SPR; also called soluble cynomolgus monkey CD19; not shown: His tag
T3 sequence: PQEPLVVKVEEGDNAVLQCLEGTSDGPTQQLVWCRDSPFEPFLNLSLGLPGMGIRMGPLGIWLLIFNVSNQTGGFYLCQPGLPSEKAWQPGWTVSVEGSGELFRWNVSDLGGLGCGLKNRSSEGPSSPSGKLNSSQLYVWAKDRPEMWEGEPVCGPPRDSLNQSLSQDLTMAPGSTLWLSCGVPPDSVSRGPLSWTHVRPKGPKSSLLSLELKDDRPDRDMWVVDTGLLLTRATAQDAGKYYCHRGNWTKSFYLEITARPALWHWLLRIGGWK

[7] = target: T3, Cynomolgus CD19-His; experiment: SPR (BIAcore), comparison of KD against human CD19-His
[8] = target: T4, human CD3 on T cells (human, UniProt P07766 23-207; P04234 22-171); experiment: flow cytometry on human blood leukocytes, CD4+ and CD8+ gate (T cells); detection with biotinylated anti-E-coil/K-coil mAb and streptavidin-PE
T4 construct: also called CD3 on human CD4+ and CD8+ T cells; copies: 1 + 1
T4 sequence (P07766 23-207 limits assumed, chain 1 of 2): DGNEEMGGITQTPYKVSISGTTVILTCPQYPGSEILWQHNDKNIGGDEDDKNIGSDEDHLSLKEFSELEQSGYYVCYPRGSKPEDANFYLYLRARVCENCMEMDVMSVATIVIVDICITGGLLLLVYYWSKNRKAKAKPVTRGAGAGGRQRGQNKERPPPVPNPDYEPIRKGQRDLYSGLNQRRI
T4 sequence (P04234 22-171 limits assumed, chain 2 of 2): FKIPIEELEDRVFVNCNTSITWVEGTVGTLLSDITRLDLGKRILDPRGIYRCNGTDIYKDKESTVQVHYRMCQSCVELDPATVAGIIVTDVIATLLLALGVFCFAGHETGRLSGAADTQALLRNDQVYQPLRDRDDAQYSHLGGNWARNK

[9] = target: T5, cynomolgus monkey CD3 on T cells (cynomolgus monkey, UniProt Q95LI5 22-198; Q95LI8 22-171); experiment: flow cytometry on cynomolgus monkey blood leukocytes, CD4+ and CD8+ gate (T cells); detection with biotinylated anti-E-coil/K-coil mAb and streptavidin-PE
T5 construct: T cells were gated as CD4+ and CD8+; also called CD3 on cynomolgus monkey CD4+ and CD8+ T cells
T5 sequence (Q95LI5 22-198 limits assumed, chain 1 of 2): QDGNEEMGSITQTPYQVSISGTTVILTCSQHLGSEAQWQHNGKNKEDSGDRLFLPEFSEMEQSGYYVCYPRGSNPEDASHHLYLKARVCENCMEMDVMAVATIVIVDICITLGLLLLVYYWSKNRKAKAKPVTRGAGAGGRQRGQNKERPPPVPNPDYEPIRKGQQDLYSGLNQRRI
T5 sequence (Q95LI8 22-171 limits assumed, chain 2 of 2): as the sequence (P04234 22-171 limits assumed, chain 2 of 2) above, with I5V, N15K, I20V, S32T, D33N, I34N, T64A, S74N, V83L, H141R counted along it

[10] = target: T6, soluble human CD19-biotin (human, UniProt P15391 20-291, limits assumed, biotin (site not stated)); experiment: bifunctional (bispecific) ELISA: plate coated with soluble human CD3ε/δ, DART titrated, detected with soluble human CD19-biotin; the value reflects simultaneous engagement of both antigens
T6 construct: Detection antigen of the bifunctional ELISA
T6 sequence (looked up): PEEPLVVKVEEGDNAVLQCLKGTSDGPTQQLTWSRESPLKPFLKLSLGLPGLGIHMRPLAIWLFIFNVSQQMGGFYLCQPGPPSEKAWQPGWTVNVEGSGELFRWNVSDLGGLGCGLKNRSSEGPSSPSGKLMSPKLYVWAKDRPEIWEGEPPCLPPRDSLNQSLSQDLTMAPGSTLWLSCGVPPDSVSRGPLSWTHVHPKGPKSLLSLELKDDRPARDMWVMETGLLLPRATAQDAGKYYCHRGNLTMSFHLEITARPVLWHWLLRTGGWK

B1: DART-A (CD19×CD3 bi-specific monovalent Fc diabody) (bispecific antibody)
chain 1: ENVLTQSPATLSVTPGEKATITCRASQSVSYMHWYQQKPGQAPRLLIYDASNRASGVPSRFSGSGSGTDHTLTISSLEAEDAATYYCFQGSVYPFTFGQGTKLEIKGGGSGGGGEVQLVESGGGLVQPGGSLRLSCAASGFTFSTYAMNWVRQAPGKGLEWVGRIRSKYNNYATYYADSVKGRFTISRDDSKNSLYLQMNSLKTEDTAVYYCVRHGNFGNSYVSWFAYWGQGTLVTVSSASTKGEVAACEKEVAALEKEVAALEKEVAALEKGGGDKTHTCPPCPAPEAAGGPSVFLFPPKPKDTLMISRTPEVTCVVVDVSHEDPEVKFNWYVDGVEVHNAKTKPREEQYNSTYRVVSVLTVLHQDWLNGKEYKCKVSNKALPAPIEKTISKAKGQPREPQVYTLPPSREEMTKNQVSLWCLVKGFYPSDIAVEWESNGQPENNYKTTPPVLDSDGSFFLYSKLTVDKSRWQQGNVFSCSVMHEALHNHYTQKSLSLSPGK
chain 2: QAVVTQEPSLTVSPGGTVTLTCRSSTGAVTTSNYANWVQQKPGQAPRGLIGGTNKRAPWTPARFSGSLLGGKAALTITGAQAEDEADYYCALWYSNLWVFGGGTKLTVLGGGGSGGGGQVTLRESGPALVKPTQTLTLTCTFSGFSLSTSGMGVGWIRQPPGKALEWLAHIWWDDDKRYNPALKSRLTISKDTSKNQVFLTMTNMDPVDTATYYCARMELWSYYFDYWGQGTTVTVSSASTKGKVAACKEKVAALKEKVAALKEKVAALKE
chain 3: not shown
notes: Three covalently bonded chains; one CD19 site and one CD3 site; Fc with L234A/L235A, knob/hole, H435R on third chain; also called CD19×CD3 bi-specific molecule; CD19×CD3 bi-specific DART-A
Q: Which results are given for B1?
A: mean EC50 of cytotoxicity, CTL assay, Raji/GF (n = 5), human T cells E:T = 10:1 [1]: 0.00031 nM; EC50 of redirected killing of Raji/GF cells, T cells cultured 24 hours with 0 nM ibrutinib, E:T 10:1, 24 hours [2]: 0.042 ng/mL; EC50 of redirected killing of Raji/GF cells, T cells cultured 48 hours with 0 nM ibrutinib, E:T 10:1, 24 hours [2]: 0.0016 ng/mL; EC50 of redirected killing of Raji/GF cells, T cells cultured 72 hours with 0 nM ibrutinib, E:T 10:1, 24 hours [2]: 0.0031 ng/mL; EC50 of redirected killing of Raji/GF cells, T cells pretreated 24 hours with 25 nM ibrutinib [2]: 0.028 ng/mL; EC50 of redirected killing of Raji/GF cells, T cells pretreated 24 hours with 250 nM ibrutinib [2]: 0.033 ng/mL; EC50 of redirected killing of Raji/GF cells, T cells pretreated 24 hours with 750 nM ibrutinib [2]: 0.037 ng/mL; EC50 of redirected killing of Raji/GF cells, T cells pretreated 24 hours with 2500 nM ibrutinib [2]: 0.104 ng/mL; EC50 of redirected killing of Raji/GF cells, T cells pretreated 48 hours with 25 nM ibrutinib [2]: 0.0015 ng/mL; EC50 of redirected killing of Raji/GF cells, T cells pretreated 48 hours with 250 nM ibrutinib [2]: 0.0011 ng/mL; EC50 of redirected killing of Raji/GF cells, T cells pretreated 48 hours with 750 nM ibrutinib [2]: 0.0012 ng/mL; EC50 of redirected killing of Raji/GF cells, T cells pretreated 48 hours with 2500 nM ibrutinib [2]: 0.0044 ng/mL; EC50 of redirected killing of Raji/GF cells, T cells pretreated 72 hours with 25 nM ibrutinib [2]: 0.0021 ng/mL; EC50 of redirected killing of Raji/GF cells, T cells pretreated 72 hours with 250 nM ibrutinib [2]: 0.002 ng/mL; EC50 of redirected killing of Raji/GF cells, T cells pretreated 72 hours with 750 nM ibrutinib [2]: 0.0018 ng/mL; EC50 of redirected killing of Raji/GF cells, T cells pretreated 72 hours with 2500 nM ibrutinib [2]: 0.0085 ng/mL; EC50 of redirected killing of Raji/GF cells, 0 nM ibrutinib, CTL assay 24 hours, E:T 10:1 [3]: 0.014 ng/mL; EC50 of redirected killing of Raji/GF cells, 0 nM ibrutinib, CTL assay 48 hours, E:T 10:1 [3]: 0.0022 ng/mL; EC50 of autologous B cell depletion, human PBMCs, 0 nM ibrutinib, 48 hours [4]: 0.79 ng/mL; Kd [5]: 2 nM; koff [5]: 0.00056 s⁻¹; kon [5]: 280000 M⁻¹ s⁻¹; Kd [6]: 20.3 nM; koff [6]: 0.0047 s⁻¹; kon [6]: 240000 M⁻¹ s⁻¹; fold lower affinity than for human CD19 [7]: ~10 fold; binding result [8]: binds; binding result [9]: binds; EC50 (read off the curve) [10]: ~80 ng/mL
